Data on 1 molecule can be found in paper PMC4490372, “Architecture of TFIIIC and its role in RNA polymerase III pre-initiation complex assembly” (Nature Communications, 2015).

Test [1] addresses T1, τ131 (Tfc4), τA subunit of endogenous S. cerevisiae TFIIIC (S. cerevisiae, UniProt P33339 1-1025).
T1 construct: τ131 (Tfc4), subunit of S. cerevisiae TFIIIC, endogenous subunit in the purified complex; Endogenous subunit; source: endogenous, purified from S. cerevisiae strain SC2342 as part of TFIIIC (TAP tag on τ60)
T1 sequence (looked up): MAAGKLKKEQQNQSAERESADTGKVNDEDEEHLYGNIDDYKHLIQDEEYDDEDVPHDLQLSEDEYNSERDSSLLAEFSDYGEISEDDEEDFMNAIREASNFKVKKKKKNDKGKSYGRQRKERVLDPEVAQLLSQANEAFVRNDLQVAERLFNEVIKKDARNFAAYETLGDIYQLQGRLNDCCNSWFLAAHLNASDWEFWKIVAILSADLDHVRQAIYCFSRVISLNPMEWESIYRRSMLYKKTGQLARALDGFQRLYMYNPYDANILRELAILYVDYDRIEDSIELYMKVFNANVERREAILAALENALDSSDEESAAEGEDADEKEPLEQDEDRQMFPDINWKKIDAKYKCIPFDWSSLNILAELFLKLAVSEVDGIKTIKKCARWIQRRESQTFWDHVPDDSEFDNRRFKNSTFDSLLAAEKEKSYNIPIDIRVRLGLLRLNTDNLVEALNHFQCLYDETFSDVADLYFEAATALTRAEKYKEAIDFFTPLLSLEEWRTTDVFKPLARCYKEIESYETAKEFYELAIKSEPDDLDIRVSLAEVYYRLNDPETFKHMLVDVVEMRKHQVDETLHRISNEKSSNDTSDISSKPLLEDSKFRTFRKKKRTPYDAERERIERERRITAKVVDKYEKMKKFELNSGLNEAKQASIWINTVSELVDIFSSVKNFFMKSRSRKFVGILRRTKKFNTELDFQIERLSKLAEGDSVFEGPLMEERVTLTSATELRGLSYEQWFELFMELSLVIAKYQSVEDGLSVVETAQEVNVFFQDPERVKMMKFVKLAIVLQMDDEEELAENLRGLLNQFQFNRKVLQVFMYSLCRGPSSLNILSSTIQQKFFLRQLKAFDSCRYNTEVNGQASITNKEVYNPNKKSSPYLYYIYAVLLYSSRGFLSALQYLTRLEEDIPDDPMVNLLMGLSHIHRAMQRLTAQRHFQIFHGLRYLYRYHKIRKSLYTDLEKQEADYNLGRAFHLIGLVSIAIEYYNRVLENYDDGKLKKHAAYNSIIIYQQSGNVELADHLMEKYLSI
Put plainly: cross-linking; XL-MS: purified endogenous TFIIIC (30 μg, 1 μg/μl) cross-linked with H12/D12 DSS to 2 mM, 40 min at 37 °C; ld-score >25. The following applies: both partners purified.

In test [2] the target is T2, τ138 (Tfc3), τB subunit of endogenous S. cerevisiae TFIIIC (S. cerevisiae, UniProt P34111 1-1160).
T2 construct: τ138 (Tfc3), subunit of S. cerevisiae TFIIIC, endogenous subunit in the purified complex; source: endogenous, purified from S. cerevisiae strain SC2342 as part of TFIIIC (TAP tag on τ60)
T2 sequence (looked up): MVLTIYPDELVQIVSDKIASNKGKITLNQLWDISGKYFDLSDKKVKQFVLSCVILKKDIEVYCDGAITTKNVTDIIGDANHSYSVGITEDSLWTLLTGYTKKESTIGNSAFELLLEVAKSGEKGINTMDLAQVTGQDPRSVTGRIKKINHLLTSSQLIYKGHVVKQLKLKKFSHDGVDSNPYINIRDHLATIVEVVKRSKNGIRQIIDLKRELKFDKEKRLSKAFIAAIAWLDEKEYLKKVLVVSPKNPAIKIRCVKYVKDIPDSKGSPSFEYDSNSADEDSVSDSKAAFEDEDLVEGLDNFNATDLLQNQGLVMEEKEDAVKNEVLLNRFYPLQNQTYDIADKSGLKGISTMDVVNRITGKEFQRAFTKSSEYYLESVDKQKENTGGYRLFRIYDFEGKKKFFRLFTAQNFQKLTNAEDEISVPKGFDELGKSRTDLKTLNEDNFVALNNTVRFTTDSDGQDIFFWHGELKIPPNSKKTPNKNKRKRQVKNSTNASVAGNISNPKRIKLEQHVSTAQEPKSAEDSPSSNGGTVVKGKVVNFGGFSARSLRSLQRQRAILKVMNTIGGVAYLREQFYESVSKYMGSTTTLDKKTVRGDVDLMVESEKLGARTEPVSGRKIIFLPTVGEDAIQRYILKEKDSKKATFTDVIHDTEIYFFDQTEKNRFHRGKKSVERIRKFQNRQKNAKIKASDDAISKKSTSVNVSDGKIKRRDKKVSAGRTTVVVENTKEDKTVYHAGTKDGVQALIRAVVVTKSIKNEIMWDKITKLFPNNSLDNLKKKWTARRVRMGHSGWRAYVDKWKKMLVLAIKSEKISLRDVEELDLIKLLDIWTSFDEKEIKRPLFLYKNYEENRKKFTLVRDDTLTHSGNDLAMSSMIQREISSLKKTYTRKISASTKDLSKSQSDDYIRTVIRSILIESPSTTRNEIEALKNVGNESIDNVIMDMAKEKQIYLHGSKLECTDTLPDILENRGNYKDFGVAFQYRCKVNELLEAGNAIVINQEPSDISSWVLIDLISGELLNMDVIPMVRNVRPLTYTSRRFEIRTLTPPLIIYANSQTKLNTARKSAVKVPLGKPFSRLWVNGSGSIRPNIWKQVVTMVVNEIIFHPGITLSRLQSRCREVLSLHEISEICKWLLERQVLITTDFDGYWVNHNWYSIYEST
The description is as above. To be noted: both partners purified.

B1: τ95 (Tfc1), τA subunit of endogenous S. cerevisiae TFIIIC (natural protein, UniProt P32367 1-649, looked up)
chain: MPVEEPLATLSSIPDSSADQAPPLIADEFTLDLPRIPSLELPLNVSTKHSSIQKAIKMCGGIEKVKEAFKEHGPIESQHGLQLYLNDDTDSDGSKSYFNEHPVIGKRVPFRDESVILKVTMPKGTLSKNNNSVKDSIKSLKDSNKLRVTPVSIVDNTIKFREMSDFQIKLDNVPSAREFKSSFGSLEWNNFKSFVNSVPDNDSQPQENIGNLILDRSVKIPSTDFQLPPPPKLSMVGFPLLYKYKANPFAKKKKNGVTEVKGTYIKNYQLFVHDLSDKTVIPSQAHEQVLYDFEVAKKTKVYPGTKSDSKFYESLEECLKILRELFARRPIWVKRHLDGIVPKKIHHTMKIALALISYRFTMGPWRNTYIKFGIDPRSSVEYAQYQTEYFKIERKLLSSPIVKKNVPKPPPLVFESDTPGGIDSRFKFDGKRIPWYLMLQIDLLIGEPNIAEVFHNVEYLDKANELTGWFKELDLVKIRRIVKYELGCMVQGNYEYNKYKLKYFKTMLFVKESMVPENKNSEEGMGVNTNKDADGDINMDAGSQMSSNAIEEDKGIAAGDDFDDNGAITEEPDDAALENEEMDTDQNLKVPASIDDDVDDVDADEEEQESFDVKTASFQDIINKIAKLDPKTAETMKSELKGFVDEVDL
notes: τ95 (Tfc1), subunit of S. cerevisiae TFIIIC, endogenous subunit in the purified complex; source: endogenous, purified from S. cerevisiae strain SC2342 as part of TFIIIC (TAP tag on τ60)
B1: the binding result in test [1] and in test [2] was “binds” in each case.
